US20190106510A1 (CELLDEX THERAPEUTICS, published 2019)
Positions count from the first letter of the chain named. Each block holds one binder with its values, some of them ahead of it.

Tests used:
recombinant KIT D4/D5 [1] = biological target: T1, recombinant KIT D4/D5 (human, UniProt P10721 26-519); assay: direct binding ELISA, plate-coated recombinant KIT D4/D5; assay #2 (supernatant)
T1 construct: also called recombinant c-Kit Ig-like domains D4/D5; recombinant polypeptide of the D4/D5 region of human KIT
Procedure: (§1) The binding affinity of the anti-KIT antibodies to the target antigen KIT Ig-like domains D4/D5 was assessed by direct binding ELISA. […] Bound antibody was detected with anti-human Ig-HRP followed by detection using TMB substrate.

recombinant KIT D4/D5 [2] = biological target: T1, recombinant KIT D4/D5; assay: direct binding ELISA, plate-coated recombinant KIT D4/D5; assay #1 (supernatant)
Procedure: as §1

[3] = biological target: T2, full-length, wild-type human KIT expressed on CHO cells (human, UniProt P10721 26-976); assay: cell-based or functional assay
[4] = biological target: T2, full-length, wild-type human KIT …; assay: cell-based or functional assay; remark: listed apart in the source
recombinant KIT D4/D5 [5] = biological target: T1, recombinant KIT D4/D5; assay: direct binding ELISA, plate-coated recombinant KIT D4/D5; assay #4 (purified)
Procedure: as §1

recombinant KIT D4/D5 [6] = biological target: T1, recombinant KIT D4/D5; assay: solid phase ELISA, plate-adsorbed recombinant D4/D5 region of human KIT (FIG. 5)
Procedure: Recombinant antigen corresponding to the D4/D5 region of the KIT extracellular domain (see FIG. 2) was absorbed onto 96-well microtiter plates. In particular, recombinant antigen (5 μg) were diluted into 10 mL of borate buffer, and 100 μL of the antigen solution were added to each well of a 96 well plate and were incubated at 4° C. overnight.
ELISA: Following one rinse with TBS-T, blocking buffer (200 μL) was added to each well of the plate with the adsorbed antigen and was incubate at room temperature for one hour. Then, the blocking buffer was removed, and the serially diluted solutions of test antibodies and controls were added to the plate in a volume of 50 μL and incubated at room temperature for one hour. The antibody solutions were removed, and the plate was washed three times with 100 μL of wash buffer on a plate washer. After the last wash, the plate was blotted dry. Secondary antibody solution was diluted 1:8000 and was added to each well in a volume of 100 μL and allowed to incubate for one hour at room temperature. The diluted secondary antibody solution was removed, and the plate was washed three times with 100 μL of wash buffer on a plate washer. Then, freshly mixed TMB substrate solution was added to each well in a volume of 100 μL and was allowed to incubate at room temperature for 30 minutes. Subsequently, 100 μL of 2N H₂SO₄ were added to each well and immediately read on the plate reader. An irrelevant antibody served as the negative control, and an anti-KIT antibody against the D4 and/or D5 domain of the extracellular region of KIT served as the positive control. OD values for each sample were obtained at a wavelength of 450 nm.
Results were analyzed using Graph Pad Prism and Excel to obtain the concentration of antibodies at 50% binding to antigen.

murine KIT = biological target: T3, murine KIT (murine, UniProt P05532 25-527, limits assumed); assay: additional binding assays (format not described)
T3 sequence (looked up): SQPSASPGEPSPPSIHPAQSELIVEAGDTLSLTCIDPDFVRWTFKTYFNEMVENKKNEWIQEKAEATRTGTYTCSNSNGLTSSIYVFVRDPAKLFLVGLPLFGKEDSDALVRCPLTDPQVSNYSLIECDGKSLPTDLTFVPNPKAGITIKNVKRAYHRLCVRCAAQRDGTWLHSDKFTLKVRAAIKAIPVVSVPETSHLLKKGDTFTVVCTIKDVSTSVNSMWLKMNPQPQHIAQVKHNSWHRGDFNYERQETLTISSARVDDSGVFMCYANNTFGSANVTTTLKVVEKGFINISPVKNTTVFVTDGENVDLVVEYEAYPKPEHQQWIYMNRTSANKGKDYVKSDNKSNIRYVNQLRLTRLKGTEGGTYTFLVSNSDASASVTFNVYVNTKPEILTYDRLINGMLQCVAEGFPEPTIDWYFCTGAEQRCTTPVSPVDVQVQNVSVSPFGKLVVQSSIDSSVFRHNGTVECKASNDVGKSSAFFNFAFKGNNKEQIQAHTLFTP

[7] = biological target: T2, full-length, wild-type human KIT …; assay: flow cytometry on CHO cells expressing full-length wild-type human KIT (FIG. 6)
Procedure: Briefly, parental CHO cells and CHO/KIT-WT cells were washed and incubated with 0.01 nM, 0.1 nM, 1 nM or 10 nM of a chimeric (human-mouse) 37M antibody, antibody Hum17, Hum8, Hum4, or Hum10, a negative control isotype IgG antibody, or a commercial anti-KIT antibody as a positive control. The samples were processed for flow cytometry analysis. More specifically, cells were removed from the culture flasks using EDTA, and washed with PBS. Then, the cells were resuspended in media and counted. Each sample containing approximately 200,000 to 250,000 cells was spun, the media was removed, and the cells were resuspended in FC buffer (1% BSA, 0.01% sodium azide in 1×PBS) for the blocking step. The cells were incubated in FC buffer for 1 hour on ice. Then, primary antibody (e.g., a chimeric (human-mouse) 37M antibody, Hum17, Hum8, Hum4, Hum10, positive control anti-KIT antibody, or negative control antibody) was added to the cells in FC buffer as described above. The samples were mixed and incubated on ice for 1 hour, followed by washing the cells with 0.5-1 mL FC buffer. The FC buffer was removed by spinning the cells at 1200 rpm for 3 minutes at 4° C., decanting the liquid. The cell pellets were resuspended in 200 μL FC buffer, and secondary antibody (DyLight 488 AffiniPure Goat Anti-Mouse IgG Jackson Laboratories) was added to the cells at a 1:1000 to 1:2000 dilution. The samples were mixed and incubated on ice for 1 hour, and then washed as described above. The samples were run on a fluorescence activated cell sorter (FACS) machine (Accuri FlowCytometer C6). Samples were analyzed by following channel FLA-1 for DyLight-conjugated samples.

recombinant KIT D4/D5 [8] = biological target: T1, recombinant KIT D4/D5; assay: direct binding ELISA, plate-coated recombinant KIT D4/D5; assay #3 (purified)
Procedure: as §1

recombinant KIT D4/D5 [9] = biological target: T1, recombinant KIT D4/D5; assay: direct binding ELISA, plate-coated recombinant KIT D4/D5; assay #3 (purified), mean of 2 replicates
Procedure: as §1

recombinant KIT D4/D5 [10] = biological target: T1, recombinant KIT D4/D5; assay: direct binding ELISA, plate-coated recombinant KIT D4/D5; assay #4 (purified), 1 replicate
Procedure: as §1

recombinant KIT D4/D5 [11] = biological target: T1, recombinant KIT D4/D5; assay: direct binding ELISA, plate-coated recombinant KIT D4/D5; assay #2 (supernatant), mean of 5 replicates
Procedure: as §1

recombinant KIT D4/D5 [12] = biological target: T1, recombinant KIT D4/D5; assay: direct binding ELISA, plate-coated recombinant KIT D4/D5; assay #1 (supernatant), mean of 4 replicates
Procedure: as §1

T1 sequence (P10721 other isoform, or with tags, fused parts or gaps limits assumed): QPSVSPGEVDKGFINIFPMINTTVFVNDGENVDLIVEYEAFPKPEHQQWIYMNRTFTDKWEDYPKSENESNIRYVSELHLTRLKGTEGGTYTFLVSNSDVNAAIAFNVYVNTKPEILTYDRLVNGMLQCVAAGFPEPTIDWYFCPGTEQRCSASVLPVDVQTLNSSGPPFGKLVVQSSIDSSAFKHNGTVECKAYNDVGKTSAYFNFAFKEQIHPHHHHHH
T2 sequence (P10721 other isoform, or with tags, fused parts or gaps limits assumed): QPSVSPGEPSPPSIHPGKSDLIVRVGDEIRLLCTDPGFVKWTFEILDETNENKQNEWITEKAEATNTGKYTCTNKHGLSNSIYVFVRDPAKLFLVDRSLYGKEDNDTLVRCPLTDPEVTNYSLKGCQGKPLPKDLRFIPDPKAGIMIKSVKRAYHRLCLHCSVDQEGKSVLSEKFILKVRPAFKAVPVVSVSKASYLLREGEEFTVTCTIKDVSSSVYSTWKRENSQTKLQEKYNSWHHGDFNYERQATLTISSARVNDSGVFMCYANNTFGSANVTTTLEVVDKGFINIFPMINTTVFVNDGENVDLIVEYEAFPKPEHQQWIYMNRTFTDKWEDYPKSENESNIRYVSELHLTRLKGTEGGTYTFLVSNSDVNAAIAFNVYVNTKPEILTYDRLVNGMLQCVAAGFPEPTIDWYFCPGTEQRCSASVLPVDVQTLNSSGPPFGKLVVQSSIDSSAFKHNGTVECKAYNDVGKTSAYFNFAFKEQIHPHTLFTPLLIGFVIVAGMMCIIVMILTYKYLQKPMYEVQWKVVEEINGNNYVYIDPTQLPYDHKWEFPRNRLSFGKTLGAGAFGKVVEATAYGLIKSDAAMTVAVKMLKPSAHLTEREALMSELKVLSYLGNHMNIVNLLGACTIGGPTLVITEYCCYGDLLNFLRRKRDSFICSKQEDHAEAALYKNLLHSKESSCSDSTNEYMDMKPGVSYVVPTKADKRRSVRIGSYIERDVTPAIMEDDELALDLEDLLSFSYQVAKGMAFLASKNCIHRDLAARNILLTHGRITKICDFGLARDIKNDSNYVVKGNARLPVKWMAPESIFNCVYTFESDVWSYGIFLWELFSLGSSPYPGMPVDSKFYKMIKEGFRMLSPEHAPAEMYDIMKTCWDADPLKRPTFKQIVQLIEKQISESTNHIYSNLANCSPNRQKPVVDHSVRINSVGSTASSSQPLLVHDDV

Relative binding activity (recombinant KIT D4/D5 [1]): 0.62 relative to chimeric antibody 37C (normalized EC50)
Relative binding activity (recombinant KIT D4/D5 [2]): 1.02 relative to chimeric antibody 37C (normalized EC50)
Relative blocking activity, assay #3 (96-well): IC50 of inhibition of SCF-induced KIT phosphorylation, normalized to chimeric 37M antibody [3]: 1.01 relative to chimeric 37M antibody
Relative blocking activity, assay #4 (96-well): IC50 of inhibition of SCF-induced KIT phosphorylation, normalized to chimeric 37M antibody [3]: 1.12 relative to chimeric 37M antibody
50% inhibition concentration (IC50), SCF-induced KIT tyrosine phosphorylation, cell-based phospho-KIT ELISA [4]: ~0.542 nM
Relative binding activity (recombinant KIT D4/D5 [5]): 0.75 relative to chimeric antibody 37C (normalized EC50)
EC50 (recombinant KIT D4/D5 [6]): ~0.011 nM
binding result (murine KIT): no binding
EC50 [7]: ~0.083 nM
Relative binding activity (recombinant KIT D4/D5 [8]): 0.89 relative to chimeric antibody 37C (normalized EC50)
B1: Hum8 (antibody, V domains shown)
VH: QVQLVQSGAEVKKPGASVKLSCKASGYTFTDYYINWVRQAPGKGLEWIARIYPGSGNTYYNEKFKGRATLTADKSTSTAYMQLSSLRSEDTAVYFCARGVYYFDYWGQGTTVTVSS
VL: DIVMTQSPSSLSASVGDRVTITCKASQNVRTNVAWYQQKPGKAPKALIYSASYRYSGVPDRFTGSGSGTDFTLTISSLQPEDFADYFCQQYNSYPRTFGGGTKVEIK

Relative binding activity (recombinant KIT D4/D5 [1]): 0.76 relative to chimeric antibody 37C (normalized EC50)
Relative binding activity (recombinant KIT D4/D5 [2]): 1.17 relative to chimeric antibody 37C (normalized EC50)
Relative blocking activity, assay #2 (24-well): IC50 of inhibition of SCF-induced KIT phosphorylation, normalized to chimeric 37M antibody [3]: 1.39 relative to chimeric 37M antibody
Relative blocking activity, assay #4 (96-well): IC50 of inhibition of SCF-induced KIT phosphorylation, normalized to chimeric 37M antibody [3]: 1.07 relative to chimeric 37M antibody
50% inhibition concentration (IC50), SCF-induced KIT tyrosine phosphorylation, cell-based phospho-KIT ELISA [4]: ~0.51 nM
Relative binding activity (recombinant KIT D4/D5 [5]): 0.72 relative to chimeric antibody 37C (normalized EC50)
EC50 (recombinant KIT D4/D5 [6]): ~0.0066 nM
binding result (murine KIT): no binding
EC50 [7]: ~0.139 nM
Relative binding activity (recombinant KIT D4/D5 [8]): 0.98 relative to chimeric antibody 37C (normalized EC50)
B2: Hum17 (antibody, V domains shown)
VH: B1 VH with R38K, D73E
VL: B1 VL with A46S, T63S, D85T, F87Y

Relative binding activity (recombinant KIT D4/D5 [1]): 0.88 relative to chimeric antibody 37C (normalized EC50)
Relative binding activity (recombinant KIT D4/D5 [2]): 1.1 relative to chimeric antibody 37C (normalized EC50)
Relative blocking activity, assay #2 (24-well): IC50 of inhibition of SCF-induced KIT phosphorylation, normalized to chimeric 37M antibody [3]: 0.82 relative to chimeric 37M antibody
Relative blocking activity, assay #4 (96-well): IC50 of inhibition of SCF-induced KIT phosphorylation, normalized to chimeric 37M antibody [3]: 0.86 relative to chimeric 37M antibody
50% inhibition concentration (IC50), SCF-induced KIT tyrosine phosphorylation, cell-based phospho-KIT ELISA [4]: ~0.51 nM
Relative binding activity (recombinant KIT D4/D5 [5]): 0.72 relative to chimeric antibody 37C (normalized EC50)
EC50 (recombinant KIT D4/D5 [6]): ~0.023 nM
binding result (murine KIT): no binding
EC50 [7]: ~0.132 nM
Relative binding activity (recombinant KIT D4/D5 [8]): 0.87 relative to chimeric antibody 37C (normalized EC50)
B3: Hum10 (antibody, V domains shown)
VH: B1 VH with L20V, A68V, L70I, Q82E
VL: B1 VL

50% inhibition concentration (IC50), SCF-induced KIT tyrosine phosphorylation, cell-based phospho-KIT ELISA [4]: ~0.344 nM
EC50 (recombinant KIT D4/D5 [9]): 0.462 nM
EC50 (recombinant KIT D4/D5 [6]): ~0.012 nM
EC50 (recombinant KIT D4/D5 [10]): 0.568 nM
EC50 (recombinant KIT D4/D5 [11]): 0.412 nM
EC50 (recombinant KIT D4/D5 [12]): 0.381 nM
EC50 [7]: ~0.047 nM
B4: chimeric antibody 37C (antibody, V domains shown)
VH: QVQLKQSGAELVRPGASVKLSCKASGYTFTDYYINWVKQRPGQGLEWIARIYPGSGNTYYNEKFKGKATLTAEKSSSTAYMQLSSLTSEDSAVYFCARGVYYFDYWGQGTTLTVSA
VL: DIVMTQSQKFMSTSVGDRVSVTCKASQNVRTNVAWYQQKPGQSPKALIYSASYRYSGVPDRFTGSGSGTDFTLTISNVQSEDLADYFCQQYNSYPRTFGGGTKLEIK
notes: also called chimera of antibody 37M; chimera
